Measured values as given in patent publication US20210002656.

Target: T1, I-SceI (UniProt P03882)
T1 sequence: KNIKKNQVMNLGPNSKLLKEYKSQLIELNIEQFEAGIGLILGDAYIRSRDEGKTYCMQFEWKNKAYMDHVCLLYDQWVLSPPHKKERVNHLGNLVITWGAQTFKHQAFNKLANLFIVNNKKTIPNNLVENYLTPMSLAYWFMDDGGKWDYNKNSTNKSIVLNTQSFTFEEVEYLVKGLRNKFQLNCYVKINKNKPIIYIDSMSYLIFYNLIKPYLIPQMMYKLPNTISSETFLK
Assay: cell_activity
Details: protein delivered to N. tabacum protoplasts, SSA assay; 0.49% when delivered as DNA; 2.4% sequential delivery

I-SceI site in YFP SSA plasmid
activity: 4.4 % YFP
